Laboratory results as given in patent US20180282403A1, “AGENTS FOR REDUCING THE ACTIVITY OF GDF15” (GENAGON THERAPEUTICS AB, priority 2015, published 2018).

Target: T1, GDF15 (Homo sapiens, UniProt Q99988)
T1 construct: purchased Abcam
T1 sequence (Q99988 197-308 limits assumed): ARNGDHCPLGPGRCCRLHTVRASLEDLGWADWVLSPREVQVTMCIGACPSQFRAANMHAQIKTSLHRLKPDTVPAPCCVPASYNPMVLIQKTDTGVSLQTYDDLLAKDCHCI
Assay: Pepstar peptide array: GDF15 binding to 15-mers of extracellular loop2 (ECD3) of QRFPR
Details: amino acid walk and alanine scan of 15-mers; FIG. 12
From the text: In order to determine the key amino acids and a minimal epitope present in the third extracellular domain of QRFPR (extracellular loop 2) we designed a Pepstar peptide array, purchased from JPT peptides. In short the array included complete coverage of the extracellular loop2 of QRFPR, divided into 15-mers. Peptides of this length (15-mers) were selected based on recommended length by the manufacturer, based on factors such as efficiency of synthesis, purity and yield by FMOC chemistry. The 15-mers were either varied according to amino acid walk, single or double alanine scan. Each set was analysed in triplicates. GDF15 was diluted into PBS-T (0.05% Tween-20) and incubated under mild agitation on an orbital shaker overnight at +4 C. Washes was done under agitation on a Sky line orbital shaker DOS-10L, ELMI.
Primary antibodies against GDF15 were added to wells with prior GDF15 incubation and to adjacent control wells where GDF15 had been omitted (only PBS-T) and incubated for 1 hr RT under agitation on orbital shaker. After repeated washes fluorophore-conjugated secondary antibodies were added, and after final washes the array was analysed on a G2502 Microarray scanner, Agilent Technologies. Fluorescence values from technical controls and control wells (no GDF15) were subtracted and resulting values in triplicate was analysed in Excel and Prism.

- GDF15 binding to immobilised QRFPR ECD3 peptides: essential for GDF15 binding
Sequence: FLYEKEHIC (listed as Homo sapiens) [SEQ ID NO:11]
